Reference: PMC4332253 (The Journal of Cell Biology, 2015)
Ends that are not written are not given here.

B1: Cdc15 F-BAR (aa 19–312) (domain or fragment, S. pombe, UniProt Q09822 19-312, looked up)
chain: SVKFRDNFWGSEDAGMDALMSRTKSSLSVLESIDEFYAKRASIEREYASKLQELAASSADIPEVGSTLNNILSMRTETGSMAKAHEEVSQQINTELRNKIREYIDQTEQQKVVAANAIEELYQKKTALEIDLSEKKDAYEYSCNKLNSYMRQTKKMTGRELDKYNLKIRQAALAVKKMDAEYRETNELLLTVTREWIDRWTEVCDAFQHIEEYRLEFLKTNMWAYANIISTACVKDDESCEKIRLTLENTNIDEDITQMIQNEGTGTTIPPLPEFNDYFKENGLNYDIDQLISK

Key:
[1] = molecular target: T1, MBP-Cdc12 (aa 1–764) (S. pombe, UniProt Q10059 1-764); experiment: pull-down
T1 sequence (looked up): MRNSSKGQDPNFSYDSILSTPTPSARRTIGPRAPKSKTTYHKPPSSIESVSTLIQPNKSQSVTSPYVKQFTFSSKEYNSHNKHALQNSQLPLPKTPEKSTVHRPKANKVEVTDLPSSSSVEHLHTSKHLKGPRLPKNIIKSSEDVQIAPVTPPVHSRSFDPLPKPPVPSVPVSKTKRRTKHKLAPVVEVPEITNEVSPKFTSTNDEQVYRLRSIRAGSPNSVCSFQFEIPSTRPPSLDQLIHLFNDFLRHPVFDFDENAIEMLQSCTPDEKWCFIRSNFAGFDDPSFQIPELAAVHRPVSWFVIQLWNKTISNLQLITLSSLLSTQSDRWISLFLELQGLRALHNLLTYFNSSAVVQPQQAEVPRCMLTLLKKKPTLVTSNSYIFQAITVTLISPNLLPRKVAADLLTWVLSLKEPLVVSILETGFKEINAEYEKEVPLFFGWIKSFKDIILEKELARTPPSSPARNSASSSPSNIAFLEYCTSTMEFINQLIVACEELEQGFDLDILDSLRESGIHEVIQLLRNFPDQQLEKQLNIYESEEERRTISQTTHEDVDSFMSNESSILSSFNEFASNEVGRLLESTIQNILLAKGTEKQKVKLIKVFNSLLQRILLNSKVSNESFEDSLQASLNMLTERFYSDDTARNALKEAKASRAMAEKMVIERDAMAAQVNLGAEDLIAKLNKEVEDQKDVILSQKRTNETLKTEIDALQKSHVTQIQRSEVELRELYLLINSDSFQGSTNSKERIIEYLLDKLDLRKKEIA

[2] = molecular target: B1; experiment: pull-down

Binder	binding result [1]	Kd [2] [nM]
B1	binds	
TPTPSARRTIGPRAPKSKTTY (peptide, UniProt Q10059 20-40, looked up, also: biotinylated, position not given here) [Cdc12 (aa 20–40) synthetic peptide]		1.1
